Reference: patent US6998240B2, “Screen for selective inhibitors or activators of Smad protein function” (Wisconsin Alumni Research Foundation, priority 2001, dated 2006)
Each block holds one substance with its values, some of them ahead of it. No end group written: not given here.

Experiments:
Smad3-P = target: T1, Smad3-P (Homo sapiens, UniProt P84022); test: HTRF assay of FAST / Jun Smad interaction motif peptide binding to Smad3-P
T1 construct: Smad3; 1–425; pBlueBac; His; made in house; host or cells: Sf9 insect cells (baculovirus), co-infected with virus for human Alk5 T204D
Method: The HTRF assay for detecting Smad protein interactions was used to quantify binding between the FAST Smad interaction motif and purified Smad 3 (phosphorylated). The indicated amounts of peptide or peptide aptamer were added as competitive inhibitors.
All three assays use a Eu-chelate α-His epitope tag antibody as the donor. The antibody recognizes the hexahistidine epitope tag on the Smad proteins produced in the baculovirus expression system described above. […] The peptides are synthesized to comprise the Smad interaction domain motif from human FAST or c-Jun (FIG. 3).

[1] = target: IC5-labelled GST-CBP fusion protein [GST: P08515]; test: HTRF, Eu-anti-GST donor plus GST-CBP-IC5 acceptor, well B07
[2] = target: IC5-labelled GST-CBP fusion protein [GST: P08515]; test: HTRF, Eu-anti-GST donor plus GST-CBP-IC5 acceptor, well B08
[3] = target: phosphorylated Smad2 (His-tagged, full length, from Sf9 cells co-infected with Alk5 T204D virus) (UniProt Q15796); test: HTRF competition against biotinylated FAST peptide
Smad2-P = target: T2, Smad2-P (Homo sapiens, UniProt Q15796); test: HTRF assay of biotin-FAST peptide binding to Smad2-P (competition); conditions: for Average Normalized Counts / Percent of Control (minus Background): Biotin-FAST binding to Smad2-P
T2 construct: Smad2; 1–467; pBlueBac; His; made in house; host or cells: Sf9 insect cells (baculovirus), co-infected with virus for membrane-targeted human Alk5 T204D
Excerpt: To establish HTRF assays for Smad protein interactions, we have used reagents from Wallac-Perkin Elmer and Packard that include Europium-cryptate coupled to α-His epitope tag antibody, α-GST antibody or Streptavidin. As acceptor fluorophores we have used allophycocyanin (Packard's XL665) coupled to Streptavidin or direct labeling of GST-fusion protein with IC5 (Dojindo). Reagents are mixed in a 50 microliter volume in the wells of a 384 Black non-treated microwell plate (Corning) and HTRF detected in a Wallac Victor V multimode plate reader. The reader detects emission at 615 nm from the Europium chelate donor and at 665 nm from the APC or IC5 acceptor. Background, cross-talk and high FRET wells can be indicated on the plate map to allow the machine to compute a normalized value as a ratio Rn=(ET/D) Dmax where ET=A−BI−(C×D). • A—Fluorescence at 665 nm • BI—Blank (buffer only) at 665 nm • D—Fluorescence at 615 nm • C—Cross-talk correction value calculated from wells containing only donor fluorophore • (from “Quench Correction for LANCE TR-FRET” by Perkin-Elmer Wallace)
Over the past several months we have developed three HTRF assays for Smad binding interactions. All three assays use a Eu-chelate α-His epitope tag antibody as the donor. The antibody recognizes the hexahistidine epitope tag on the Smad proteins produced in the baculovirus expression system described above. As acceptors, we have used Streptavidin conjugated to allophycocyanin (Packard) that binds to biotinylated peptides. The peptides are synthesized to comprise the Smad interaction domain motif from human FAST or c-Jun (FIG. 3). The FAST 24-mer amino acid sequence is based on the homology between FAST, Mixer and Milk reported by Germain and colleagues (Germain, S., et al., supra, 2000). The24-mer C-JUN sequence is based on studies using deletions and gene fragments to define the Smad interaction motif (Zhang, Y., et al., supra, 1998; Liberati, N. T. et al., Proc. Natl. Acad. Sci. USA 96:4844–9, 1999). We also have developed an HTRF assay using IC5-GST-CBP, a fusion protein comprising the Smad interaction domain motif from CBP (a generous gift of Dr. Yigong Shi, Princeton University).
The assays are done in a 50 μl volume in the well of a 384-well plate. The assay buffer, as recommended by Packard for their HTRF reagents is 50 mM K-Hepes pH 7.0, 400 mM KF and 0.1% BSA. The high concentration of KF is recommended for the Eu(K) reagents from Packard. […] We have also optimized through many titrations the amount of Smad protein (220 ng/well, ˜4 pmoles per well of monomer), the concentration of biotinylated peptide (1 uMolar for FAST and C-JUN), the amount of Eu-anti-His tag antibody (36 ng/well) and the amount of Streptactin-APC (0.5 μg/well).
We used the FAST-SmadP HTRF assay described above. […] After 1 hr at room temperature, Streptavidin-APC was added to each well and 30 minutes later the fluorescence emissions at 615 nm and 665 nm were read in a PE-Wallac Victor V.

[4] = target: unphosphorylated Smad2 (His-tagged, full length) (UniProt Q15796); test: HTRF, well D12 Smad2
[5] = target: unphosphorylated Smad2 (His-tagged, full length) (UniProt Q15796); test: HTRF, well D13 Smad2
[6] = target: unphosphorylated Smad2 (His-tagged, full length) (UniProt Q15796); test: HTRF, well D14 Smad2
[7] = target: Smad4 (Strep-tagged, full length) (UniProt Q13485); test: HTRF, well D17 Smad4
Smad4 (Strep-tagged, full length), sequence (Q13485 whole entry): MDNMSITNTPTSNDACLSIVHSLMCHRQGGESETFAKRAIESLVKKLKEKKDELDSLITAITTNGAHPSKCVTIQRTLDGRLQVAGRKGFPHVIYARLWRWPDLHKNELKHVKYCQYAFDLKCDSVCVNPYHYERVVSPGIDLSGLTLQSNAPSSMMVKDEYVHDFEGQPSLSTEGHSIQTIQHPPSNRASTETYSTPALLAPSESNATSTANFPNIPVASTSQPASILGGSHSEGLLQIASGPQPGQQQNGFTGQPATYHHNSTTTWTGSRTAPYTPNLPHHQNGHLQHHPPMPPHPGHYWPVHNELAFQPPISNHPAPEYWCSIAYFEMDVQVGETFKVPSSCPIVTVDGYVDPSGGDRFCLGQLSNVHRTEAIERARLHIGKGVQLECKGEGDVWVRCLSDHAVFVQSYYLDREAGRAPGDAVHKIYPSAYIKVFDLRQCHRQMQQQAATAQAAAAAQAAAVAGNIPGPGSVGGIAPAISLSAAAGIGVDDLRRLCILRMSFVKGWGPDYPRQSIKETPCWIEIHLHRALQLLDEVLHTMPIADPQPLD

[8] = target: Smad4 (Strep-tagged, full length) (UniProt Q13485); test: HTRF, well D18 Smad4
[9] = target: Smad4 (Strep-tagged, full length) (UniProt Q13485); test: HTRF, well D19 Smad4
[10] = target: Smad4 (Strep-tagged, full length) (UniProt Q13485); test: HTRF, well D20 Smad4
[11] = target: phosphorylated Smad2 (His-tagged, full length, from Sf9 cells co-infected with Alk5 T204D virus) (UniProt Q15796); test: HTRF, well D05 Smad2P
[12] = target: phosphorylated Smad2 (His-tagged, full length, from Sf9 cells co-infected with Alk5 T204D virus) (UniProt Q15796); test: HTRF, well D09 Smad2P
[13] = target: phosphorylated Smad3 (His-tagged, full length) (UniProt P84022); test: HTRF, well D15 Smad3P
phosphorylated Smad3 (His-tagged, full length), sequence (P84022 whole entry): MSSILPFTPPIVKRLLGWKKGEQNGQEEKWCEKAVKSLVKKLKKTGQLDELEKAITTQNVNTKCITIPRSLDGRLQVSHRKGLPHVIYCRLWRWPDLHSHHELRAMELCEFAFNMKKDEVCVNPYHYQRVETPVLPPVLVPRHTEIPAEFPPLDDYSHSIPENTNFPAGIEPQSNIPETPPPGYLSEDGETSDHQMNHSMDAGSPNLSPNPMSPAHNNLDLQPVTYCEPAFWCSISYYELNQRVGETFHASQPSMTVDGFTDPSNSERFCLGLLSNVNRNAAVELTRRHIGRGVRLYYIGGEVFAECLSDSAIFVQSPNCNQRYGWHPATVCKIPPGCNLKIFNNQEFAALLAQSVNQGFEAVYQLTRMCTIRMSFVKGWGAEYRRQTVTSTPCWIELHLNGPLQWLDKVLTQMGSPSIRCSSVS

[14] = target: phosphorylated Smad3 (His-tagged, full length) (UniProt P84022); test: HTRF, well D16 Smad3P
[15] = target: unphosphorylated Smad2 (His-tagged, full length) (UniProt Q15796); test: HTRF, well D11 Smad2 (No Smad well: 260)
[16] = target: phosphorylated Smad2 (His-tagged, full length, from Sf9 cells co-infected with Alk5 T204D virus) (UniProt Q15796); test: HTRF, IC5-GST-CBP binding to Smad2-P, no inhibitor
[17] = target: phosphorylated Smad2 (His-tagged, full length, from Sf9 cells co-infected with Alk5 T204D virus) (UniProt Q15796); test: HTRF, well D06 Smad2P with unlabelled GST-CBP competitor added after equilibrium
[18] = target: phosphorylated Smad2 (His-tagged, full length, from Sf9 cells co-infected with Alk5 T204D virus) (UniProt Q15796); test: HTRF, well D10 Smad2P with unlabelled GST-CBP competitor added after equilibrium
[19] = target: phosphorylated Smad2 (His-tagged, full length, from Sf9 cells co-infected with Alk5 T204D virus) (UniProt Q15796); test: HTRF competition, biotin-FAST on Smad2-P, inhibitor at 20 µM
[20] = target: phosphorylated Smad2 (His-tagged, full length, from Sf9 cells co-infected with Alk5 T204D virus) (UniProt Q15796); test: HTRF competition, biotin-FAST on Smad2-P, inhibitor at 40 µM
[21] = target: phosphorylated Smad2 (His-tagged, full length, from Sf9 cells co-infected with Alk5 T204D virus) (UniProt Q15796); test: HTRF competition, biotin-FAST on Smad2-P, inhibitor at 50 µM

time for binding reaction to reach equilibrium (Smad3-P; 1 μM biotinylated peptide): about 90 minutes
Substance: C-JUN: biotinylated 24-mer c-Jun Smad interaction motif peptide, HTRF ligand (LKQKVMNHVNSGCQLMLTQQLQTF; also: biotinylated, site not given here)

Emission 665 [1]: 5170 counts
Normalized Counts [1]: 6800 counts
Emission 665 [2]: 9450 counts
Normalized Counts [2]: 9110 counts
Substance: Europium-cryptate αGST antibody (Packard)

fold higher IC50 than GST-trx-FAST [3]: 10 fold
Substance: GST-trx-FAST aptamer with two amino acids deleted from the C-terminus of the FAST SIM (from UniProt O75593 327-348) (designed binder)

fold higher IC50 than GST-trx-FAST [3]: 10 fold
Substance: GST-trx-FAST aptamer with two amino acids deleted from the N-terminus of the FAST SIM (from UniProt O75593 329-350) (designed binder)

effect on binding (in words) (Smad2-P; 8 μg/50 ul): very little effect
competitive inhibition of FAST Smad interaction motif binding to Smad 3 (phosphorylated) (in words) (Smad3-P): did not interfere with binding
Substance: GST-trx: 35 kd GST-trx fusion protein, scaffold without SIM insert [reference compound]

Normalized Counts [4]: 315 counts
Normalized Counts [5]: 311 counts
Normalized Counts [6]: 327 counts
Normalized Counts [7]: 149 counts
Normalized Counts [8]: 206 counts
Normalized Counts [9]: 252 counts
Normalized Counts [10]: 150 counts
Normalized Counts [11]: 593 counts
Normalized Counts [12]: 617 counts
Normalized Counts [13]: 665 counts
Normalized Counts [14]: 683 counts
Normalized Counts [15]: 334 counts
Average Normalized Counts [16]: 751 counts
Percent of Control (minus Background) [16]: 100%
Normalized Counts [17]: 322 counts
Normalized Counts [18]: 353 counts
Substance: IC5-labelled GST-CBP fusion protein (from UniProt P08515 1-218)

competition for Biotin-FAST binding to Smad-2P (in words) (Smad2-P): inability
Average Normalized Counts (Smad2-P; 20 μM inhibitor peptide): 1984
Percent of Control (minus Background) (Smad2-P; 20 μM inhibitor peptide): 106%
Average Normalized Counts (Smad2-P; 40 μM inhibitor peptide): 1964
Percent of Control (minus Background) (Smad2-P; 40 μM inhibitor peptide): 105%
Substance: JUN 24 mer: 24-mer peptide of the Smad interaction motif from c-Jun (LKQKVMNHVNSGCQLMLTQQLQTF)

Average Normalized Counts [19]: 1980 counts
Percent of Control (minus Background) [19]: 106%
Average Normalized Counts [20]: 1960 counts
Percent of Control (minus Background) [20]: 105%
Substance: cJUN-24mer peptide (unlabelled) (from UniProt P05412 308-331)

Average Normalized Counts [19]: 2020 counts
Percent of Control (minus Background) [19]: 108%
Average Normalized Counts [21]: 1980 counts
Percent of Control (minus Background) [21]: 106%
Substance: hFAST-13mer peptide (from UniProt O75593 331-343)

Average Normalized Counts [19]: 1920 counts
Average Normalized Counts [21]: 1860 counts
Substance: hFAST-24mer PP>AA peptide (from UniProt O75593 327-350)
